{"source": "paper PMC10229228", "about": "“Structural insights into a regulatory mechanism of FIR RRM1–FUSE interaction”", "binders": {"B1": {"name": "FUSE 15-nt (ssDNA)", "DNA": "TTTTTATTTTGTGTT"}, "B2": {"name": "TTGTTTT (ssDNA)", "DNA": "TTGTTTT"}, "B3": {"name": "TTATTTT (ssDNA)", "DNA": "TTATTTT"}, "B4": {"name": "TAATTTT (ssDNA)", "DNA": "TAATTTT"}}, "conditions_in_all_cases": "protein: recombinant; tags: N-terminal His6, removed by TEV; single strand", "key": {"FIR RRM1-2 Y115F [1]": {"target": "T1, FIR RRM1-2 Y115F (UniProt Q9UHX1-2 101-293, Y115F)", "T1 sequence (Q9UHX1 118-310 Y132F)": "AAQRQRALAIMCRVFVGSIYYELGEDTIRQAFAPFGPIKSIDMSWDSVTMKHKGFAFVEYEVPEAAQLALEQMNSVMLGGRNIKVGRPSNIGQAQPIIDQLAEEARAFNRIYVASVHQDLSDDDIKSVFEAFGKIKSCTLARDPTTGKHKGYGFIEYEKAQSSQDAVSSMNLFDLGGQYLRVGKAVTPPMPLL", "assay": "X-ray crystallography (1.65 A); ITC: 25 mM HEPES pH 7.5, 150 mM NaCl, 0.5 mM TCEP, 20 C; protein 160-240 uM titrated into ssDNA 40-50 uM"}, "FIR RRM1-2 WT [2]": {"target": "T2, FIR RRM1-2 WT (UniProt Q9UHX1-2 101-293)", "T2 sequence (Q9UHX1 118-310)": "as the sequence (Q9UHX1 118-310 Y132F) above, with F15Y counted along it", "assay": "X-ray crystallography (2.05 A); ethylene glycol contacts the bound guanine; ITC: 25 mM HEPES pH 7.5, 150 mM NaCl, 0.5 mM TCEP, 20 C; protein 160-240 uM titrated into ssDNA 40-50 uM"}, "FIR RRM1-2 WT [3]": {"target": "T2, FIR RRM1-2 WT", "assay": "ITC; ITC: 25 mM HEPES pH 7.5, 150 mM NaCl, 0.5 mM TCEP, 20 C; protein 160-240 uM titrated into ssDNA 40-50 uM"}, "FIR RRM1-2 Y115F [4]": {"target": "T1, FIR RRM1-2 Y115F", "assay": "ITC; ITC: 25 mM HEPES pH 7.5, 150 mM NaCl, 0.5 mM TCEP, 20 C; protein 160-240 uM titrated into ssDNA 40-50 uM"}}, "data": [{"binder": "B1", "values": [{"measurement": "binding result", "setting": "FIR RRM1-2 Y115F [1]", "result": "binds"}, {"measurement": "binding result", "setting": "FIR RRM1-2 WT [2]", "result": "binds"}]}, {"binder": "B2", "values": [{"measurement": "Kd", "setting": "FIR RRM1-2 WT [3]", "result": 2, "unit": "µM"}]}, {"binder": "B3", "values": [{"measurement": "Kd", "setting": "FIR RRM1-2 WT [3]", "result": 11, "unit": "µM"}]}, {"binder": "B4", "values": [{"measurement": "Kd", "setting": "FIR RRM1-2 Y115F [4]", "result": "~6", "unit": "µM"}]}]}
